Laboratory results from patent CN113929774A (INST MICROBIOLOGY CAS, dated 2022).

Biological target: SARS-CoV-2野生型(WT)活病毒的S蛋白 (hCoV-19/China/CAS-B001/2020) (SARS-CoV-2, UniProt P0DTC2 14-1273)
Assay: cell-based or functional assay

B1: 9K抗体 (antibody, V domains shown)
VH: EVQLVESGGGVVQPGRSLGLSCAVSGFTFSSYAMHWVRQAPGKGLEWVALISNDGTIDSYADSVKGRFTISRDNSKNTLYLRMSSLRAEDTAVYYCARDKEQLVPTFDYWGQGTLVTVSS
VL: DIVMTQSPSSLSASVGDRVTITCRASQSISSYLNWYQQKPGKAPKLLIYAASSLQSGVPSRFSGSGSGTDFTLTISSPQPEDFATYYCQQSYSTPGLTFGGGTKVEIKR
  中和滴度(半抑制浓度，IC50), live virus CPE assay on Vero E6 cells: 49.4 µg/mL
